Results published in US20120214744A1 (L UNIVERSITE PARIS DESCARTES, published 2012).
“And” between values parts separate entries of the source, which are not always exact repeats. Equal entries are not always repeated. Each block holds one molecule with its values, some of them ahead of it.

Legend:
[1] = biological target: gD-tagged wild-type ErbB2 (human) (UniProt P04626); assay: cell-based or functional assay
endogenous EGFR = biological target: T1, endogenous EGFR (human, UniProt P00533 25-1210); assay: GST pull-down from HBMEC lysates
T1 construct: whole, on cells; Endogenous receptor of HBMECs, from lysates; also called endogenous EGF receptors
Experimental: (§1) Clarified lysates were incubated with GST fusion proteins (20-30 mg) bound to glutathione-Sepharose beads for 2 h at 4° C. Beads were washed three times with lysis buffer, and bound proteins were eluted in Laemmli sample buffer and separated by SDS-PAGE for analysis by western blotting.

[2] = biological target: T2, gD-tagged wild-type ErbB2 (human, UniProt P04626 23-1255); assay: GST pull-down from HBMEC lysates, anti-gD western blot
T2 construct: whole, on cells; Expressed in HBMECs (human endothelial cells); also called gD-ErbB2-WT; gD-ErbB2 WT
Experimental: as §1

Molecule: VSV-g-tagged ezrin FERM domain (from UniProt P15311 1-295)
ErbB2-induced cell proliferation of HBMECs [1]: 85 % reduction and 70 % reduction

binding result (endogenous EGFR): no binding
binding result [2]: no binding
B1: GST fused with the carboxy-terminal domain of ezrin (other)
chain: REEKHQKQLERQQLETEKKRRETVEREKEQMMREKEELMLRLQDYEEKTKKAERELSEQIQRALQLEEERKRAQEEAERLEADRMAALRAKEELERQAVDQIKSQEQLAAELAEYTAKIALLEEARRRKEDEVEEWQHRAKEAQDDLVKTKEELHLVMTAPPPPPPPVYEPVSYHVQESLQDEGAEPTGYSAELSSEGIRDDRNEEKRITEAEKNERVQRQLLTLSSELSQARDENKRTHNDIIHNENMRQGRDKYKTLRQIRQGNTKQRIDEFEAL
notes: also called GST-Ezrin-CT; C-terminus of ezrin; not shown: glutathione S-transferase (GST) tag
